Test results published in patent US20230129095A1, “PEPTIDE INHIBITORS OF INTERLEUKIN-23 RECEPTOR AND THEIR USE TO TREAT INFLAMMATORY DISEASES” (Protagonist Therapeutics, Inc., priority 2020, published 2023).
Bridges are numbered along the chain shown (N, C = ends). [ ]: non-standard residue; d: D form. Trp(7-Ph) = N[C@@H](Cc1c[nH]c2c(-c3ccccc3)cccc12)C(=O)O; 2Nal = N[C@@H](Cc1ccc2ccccc2c1)C(=O)O; AEF = NCCOc1ccc(C[C@H](N)C(=O)O)cc1; αMeK = C[C@](N)(CCCCN)C(=O)O; Abu = CC[C@H](N)C(=O)O

Columns and labels:
[1] = target: T1, interleukin-23 receptor (IL-23R), human (human, UniProt Q5VWK5 24-629); experiment: cell-based or functional assay
T1 sequence (looked up): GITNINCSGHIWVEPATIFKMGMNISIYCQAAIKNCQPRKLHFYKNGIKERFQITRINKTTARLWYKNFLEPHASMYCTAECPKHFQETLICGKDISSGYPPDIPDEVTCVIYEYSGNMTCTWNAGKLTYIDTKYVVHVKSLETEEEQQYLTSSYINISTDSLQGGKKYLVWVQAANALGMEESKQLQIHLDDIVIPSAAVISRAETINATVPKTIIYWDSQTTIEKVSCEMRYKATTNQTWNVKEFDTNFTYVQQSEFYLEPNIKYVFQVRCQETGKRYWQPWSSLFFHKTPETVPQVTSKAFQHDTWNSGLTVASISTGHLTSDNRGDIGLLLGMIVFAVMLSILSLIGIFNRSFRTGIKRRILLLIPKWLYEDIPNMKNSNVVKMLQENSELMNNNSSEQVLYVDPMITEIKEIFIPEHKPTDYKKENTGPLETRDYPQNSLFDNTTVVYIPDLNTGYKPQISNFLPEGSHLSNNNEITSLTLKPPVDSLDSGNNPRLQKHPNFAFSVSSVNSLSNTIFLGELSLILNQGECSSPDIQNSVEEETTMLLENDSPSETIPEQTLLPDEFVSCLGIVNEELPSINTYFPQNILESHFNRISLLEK

[2] = target: T1, interleukin-23 receptor (IL-23R), human; experiment: cell-based or functional assay; remark: listed apart in the source

B1: Peptide No. 15 (SEQ ID No. 15) (peptide)
peptide: XNTXKXXXXENL
modifications: Ac-[Pen]-N-T-[W(7-Ph)]-[Lys(Ac)]-[Pen]-Phe[4-(2-aminoethoxy)]-[3Quin]-[THP]-E-N-[(D)Leu]-NH2; N-terminal acetyl, C-terminal amide; cyclized via Pen-Pen disulfide bond
NK Cell Assay IC50 (IFNgamma secretion by human NK cells stimulated with IL-23 and IL-18) [1]: 2.44 nM | pStat3 HTRF IC50 (DB cells IL23R pSTAT3 cell assay, 0.5 nM IL-23) [2]: 0.186 nM

B2: Peptide No. 16 (SEQ ID No. 16) (peptide)
peptide: XNTXKXXXXKNL
modifications: Ac-[Pen]-N-T-[W(7-Ph)]-[Lys(Ac)]-[Pen]-Phe[4-(2-aminoethoxy)]-[3Quin]-[a-MeLys]-[Lys(Ac)]-N-[(D)Leu]-NH2; N-terminal acetyl, C-terminal amide; cyclized via Pen-Pen disulfide bond
NK Cell Assay IC50 (IFNgamma secretion by human NK cells stimulated with IL-23 and IL-18) [1]: 2.9 nM | pStat3 HTRF IC50 (DB cells IL23R pSTAT3 cell assay, 0.5 nM IL-23) [2]: 0.365 nM

B3: Peptide No. 1 (SEQ ID No. 1) (peptide)
peptide: XNTXKXXXXKNL
modifications: Ac-[Pen]-N-T-[W(7-Ph)]-[Lys(Ac)]-[Pen]-Phe[4-(2-aminoethoxy)]-[2-Nal]-[a-MeLys]-[Lys(Ac)]-N-[(D)Leu]-NH2; N-terminal acetyl, C-terminal amide; cyclized via Pen-Pen disulfide bond
NK Cell Assay IC50 (IFNgamma secretion by human NK cells stimulated with IL-23 and IL-18) [1]: 4.3 nM | pStat3 HTRF IC50 (DB cells IL23R pSTAT3 cell assay, 0.5 nM IL-23) [2]: 0.518 nM

B4: Peptide No. 14 (SEQ ID No. 14) (peptide)
peptide: XNTXKXXXXKNK
modifications: Ac-[Pen]-N-T-[W(7-Ph)]-[Lys(Ac)]-[Pen]-Phe[4-(2-aminoethoxy)]-[3Quin]-[a-MeLys]-[Lys(Ac)]-N-[(D)Lys]-NH2; N-terminal acetyl, C-terminal amide; cyclized via Pen-Pen disulfide bond
NK Cell Assay IC50 (IFNgamma secretion by human NK cells stimulated with IL-23 and IL-18) [1]: 2.41 nM | pStat3 HTRF IC50 (DB cells IL23R pSTAT3 cell assay, 0.5 nM IL-23) [2]: 0.437 nM

B5: Peptide No. 13 (SEQ ID No. 13) (peptide)
peptide: XNTXKXXXXENK
modifications: Ac-[Pen]-N-T-[W(7-Ph)]-[Lys(Ac)]-[Pen]-Phe[4-(2-aminoethoxy)]-[3Quin]-[THP]-E-N-[(D)Lys]-NH2; N-terminal acetyl, C-terminal amide; cyclized via Pen-Pen disulfide bond
NK Cell Assay IC50 (IFNgamma secretion by human NK cells stimulated with IL-23 and IL-18) [1]: 1.55 nM | pStat3 HTRF IC50 (DB cells IL23R pSTAT3 cell assay, 0.5 nM IL-23) [2]: 0.386 nM

B6: Peptide No. 18 (SEQ ID No. 18) (peptide)
peptide: Ac-[Abu]QT[Trp(7-Ph)]K(Ac)C[AEF][2Nal][αMeK]K(Ac)N[dL]-NH2
modifications: thioether 1-6
NK Cell Assay IC50 (IFNgamma secretion by human NK cells stimulated with IL-23 and IL-18) [1]: 6.28 nM | pStat3 HTRF IC50 (DB cells IL23R pSTAT3 cell assay, 0.5 nM IL-23) [2]: 0.993 nM
